Measured values as given in paper PMC3092763, “Urate Oxidase Purification by Salting-in Crystallization: Towards an Alternative to Chromatography” (PLoS ONE, 2011).

Biological target: the molecule itself
Test: SEC; analytical SEC of the pools of the downstream process; Superdex 200 GL, 50 mM sodium phosphate buffer pH 8, UV detection at 226 and 280 nm; column calibrated with seven proteins of 13.7 to 669 kDa; oligomer size from the calibration (with IEF profile and activity test as support)

B1: recombinant urate oxidase from Aspergillus flavus (rasburicase) (enzyme, UniProt Q00511 1-302, looked up)
chain: MSAVKAARYGKDNVRVYKVHKDEKTGVQTVYEMTVCVLLEGEIETSYTKADNSVIVATDSIKNTIYITAKQNPVTPPELFGSILGTHFIEKYNHIHAAHVNIVCHRWTRMDIDGKPHPHSFIRDSEEKRNVQVDVVEGKGIDIKSSLSGLTVLKSTNSQFWGFLRDEYTTLKETWDRILSTDVDATWQWKNFSGLQEVRSHVPKFDATWATAREVTLKTFAEDNSASVQATMYKMAEQILARQQLIETVEYSLPNKHYFEIDLSWHKGLQNTGKNAEVFAPQSDPNGLIKCTVGRSSLKSKL
notes: urate oxidase (uricase, EC 1.7.3.3) from Aspergillus flavus, recombinant form (rasburicase); subunit of about 34 kDa, 135 kDa tetramer of identical subunits; Several isoforms are seen by IEF even in the purest pool; also called Fasturtec; Elitek; source: expressed in a genetically modified Saccharomyces cerevisiae strain; supplied by Sanofi-Aventis, sampled at different steps of the downstream …
  stoichiometry N: 4
